Source: article PMC2408619

Target: T1, Bordetella bacteriophage major tropism determinant variant Mtd-P1 (Bordetella bacteriophage BPP-1), Q775D6
T1 chain: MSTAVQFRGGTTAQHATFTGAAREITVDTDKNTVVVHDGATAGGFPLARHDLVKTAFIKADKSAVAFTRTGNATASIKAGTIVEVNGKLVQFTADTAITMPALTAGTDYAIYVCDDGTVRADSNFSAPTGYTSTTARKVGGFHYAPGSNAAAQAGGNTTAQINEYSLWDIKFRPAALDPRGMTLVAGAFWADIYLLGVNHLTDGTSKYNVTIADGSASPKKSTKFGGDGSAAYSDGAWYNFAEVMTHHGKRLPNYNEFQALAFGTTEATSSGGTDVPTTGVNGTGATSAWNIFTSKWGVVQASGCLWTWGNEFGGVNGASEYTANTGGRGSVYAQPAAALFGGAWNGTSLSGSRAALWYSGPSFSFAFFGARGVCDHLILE
Assay: crystal structure; Mtd-P1·Prn-E complex formed with ~1.6-fold molar excess of Mtd-P1 trimers over His-tagged Prn-E, isolated by Ni2+-chelation and Superdex 200; crystals at 25 °C in 2 M NaCl, 100 mM Tris pH 8.5, 200 mM Li2SO4; 3.16 Å
Conditions: remark: other sources report otherwise

B1: Bordetella bacteriophage major tropism determinant variant Mtd-P1, Q775D6 1-381 (natural protein)
chain: T1 chain
- stoichiometry N: 3
